{"source": "patent US20260232827A1", "about": "(Zymeworks, published 2026)", "binders": {"B1": {"name": "v29456 (H1L2) (antibody, human IgG1, kappa)", "heavy": "not shown", "light": "DVQMTQSPSSLSASVGDRVTITCRASQDVYSYLNWYQQKPGKAVKLLIYYTSRLQSGVPSRFSGSGSGTDYTLTISSLQPEDFATYYCQQYNIFPWTFGQGTKLEIKRTVAAPSVFIFPPSDEQLKSGTASVVCLLNNFYPREAKVQWKVDNALQSGNSQESVTEQDSKDSTYSLSSTLTLSKADYEKHKVYACEVTHQGLSSPVTKSFNRGEC", "notes": "Humanized IgG1/kappa; heavy chain ends at G446 (EU); also called humanized antibody variant v29456"}, "B2": {"name": "v21995 (palivizumab, anti-RSV negative control) (antibody, human IgG1, kappa, V domains shown)", "VH": "QVTLRESGPALVKPTQTLTLTCTFSGFSLSTSGMSVGWIRQPPGKALEWLADIWWDDKKDYNPSLKSRLTISKDTSKNQVVLKVTNMDPADTATYYCARSMITNWYFDVWGAGTTVTVSS", "VL": "DIQMTQSPSTLSASVGDRVTITCKSQLSVGYMHWYQQKPGKAPKLLIYDTSKLASGVPSRFSGSGSGTEFTLTISSLQPDDFATYYCFQGSGYPFTFGGGTKLEIKR"}}, "key": {"[1]": {"biological_target": "T1, mouse NaPi2b (mouse, UniProt Q9DBP0 1-697)", "T1 construct": "also called Ms NaPi2b; CL #13476", "T1 sequence": "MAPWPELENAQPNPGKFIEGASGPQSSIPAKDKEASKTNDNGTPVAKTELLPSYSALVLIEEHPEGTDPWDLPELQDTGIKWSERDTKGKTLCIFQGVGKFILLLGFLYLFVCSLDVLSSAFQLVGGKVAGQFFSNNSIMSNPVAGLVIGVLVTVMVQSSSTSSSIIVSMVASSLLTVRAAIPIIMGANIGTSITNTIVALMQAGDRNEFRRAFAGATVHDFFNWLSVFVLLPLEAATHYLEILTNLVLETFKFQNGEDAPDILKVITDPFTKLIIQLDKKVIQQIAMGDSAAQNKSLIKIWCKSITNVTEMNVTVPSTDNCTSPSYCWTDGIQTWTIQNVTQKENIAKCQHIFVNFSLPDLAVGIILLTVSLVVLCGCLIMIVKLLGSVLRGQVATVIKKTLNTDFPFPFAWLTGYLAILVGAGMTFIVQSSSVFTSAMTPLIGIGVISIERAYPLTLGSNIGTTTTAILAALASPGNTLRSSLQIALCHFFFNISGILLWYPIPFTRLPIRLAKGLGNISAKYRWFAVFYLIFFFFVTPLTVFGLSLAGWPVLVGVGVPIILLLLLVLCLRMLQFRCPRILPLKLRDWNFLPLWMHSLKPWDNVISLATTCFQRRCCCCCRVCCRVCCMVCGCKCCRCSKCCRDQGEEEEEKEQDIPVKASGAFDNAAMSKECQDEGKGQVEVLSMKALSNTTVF", "assay": "flow cytometry, HEK293-6e cells transfected with mouse NaPi2b; apparent Kd", "description": "(§1) Briefly, HEK293-6e cells were transfected for ~24 hours to transiently express human NaPi2b, cynomolgus or mouse NaPi2b, at 1 μg of DNA per 1 million cells. Following transfection, 50,000 cells per well were seeded in V-bottom 96-well plates and incubated with 200 nM of primary antibody for 18-24 hours at 4° C. to prevent internalization. […] Following staining and washing, fluorescence was detected by flow cytometry on BD LSRFortessa™ Cell Analyzer (BD Biosciences, Franklin Lake, NJ) with 10,000 minimum events collected per well. The AF647/APC-A GeoMean (fluorescence signal geometric mean, proportional to anti-Human AF647 binding) was calculated for the live singlet cell population for each primary antibody using FlowJo™ v8 software (BD Biosciences, Franklin Lake, NJ). The Bmax and Kd of each primary antibody were calculated using GraphPad Prism Version 9 (GraphPad Software, San Diego, CA)"}, "[2]": {"biological_target": "T2, cynomolgus monkey NaPi2b (cynomolgus monkey, UniProt O95436 1-690 (human entry))", "T2 construct": "also called Cyno NaPi2b; Cy NaPi2b", "T2 chain": "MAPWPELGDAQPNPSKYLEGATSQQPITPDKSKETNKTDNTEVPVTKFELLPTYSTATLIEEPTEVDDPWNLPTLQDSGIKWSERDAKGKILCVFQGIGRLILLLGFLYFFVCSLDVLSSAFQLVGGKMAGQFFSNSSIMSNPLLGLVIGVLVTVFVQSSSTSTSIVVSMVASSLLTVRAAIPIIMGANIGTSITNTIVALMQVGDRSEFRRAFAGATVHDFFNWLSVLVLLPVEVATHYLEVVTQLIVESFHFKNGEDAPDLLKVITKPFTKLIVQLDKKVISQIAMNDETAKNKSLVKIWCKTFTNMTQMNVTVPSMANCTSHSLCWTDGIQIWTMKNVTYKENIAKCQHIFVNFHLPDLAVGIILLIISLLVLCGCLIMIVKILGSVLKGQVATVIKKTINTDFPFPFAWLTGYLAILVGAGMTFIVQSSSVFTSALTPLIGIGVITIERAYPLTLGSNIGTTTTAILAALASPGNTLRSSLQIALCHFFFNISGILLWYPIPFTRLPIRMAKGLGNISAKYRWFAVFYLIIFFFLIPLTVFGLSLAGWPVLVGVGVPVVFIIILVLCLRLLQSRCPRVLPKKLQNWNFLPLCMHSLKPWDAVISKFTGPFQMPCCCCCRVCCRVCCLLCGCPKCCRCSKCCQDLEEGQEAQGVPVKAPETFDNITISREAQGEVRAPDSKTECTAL", "assay": "flow cytometry, HEK293-6e cells transfected with cynomolgus NaPi2b", "description": "as §1"}, "[3]": {"biological_target": "T2, cynomolgus monkey NaPi2b", "assay": "flow cytometry, HEK293-6e cells transfected with cynomolgus NaPi2b; apparent Kd", "description": "as §1"}, "[4]": {"biological_target": "T3, human sodium-dependent phosphate transporter 2B (NaPi2b) (human, UniProt O95436 1-690)", "T3 construct": "UniProt ID is given as 095436 [sic]; also called hNaPi2b; Hu NaPi2b", "T3 sequence": "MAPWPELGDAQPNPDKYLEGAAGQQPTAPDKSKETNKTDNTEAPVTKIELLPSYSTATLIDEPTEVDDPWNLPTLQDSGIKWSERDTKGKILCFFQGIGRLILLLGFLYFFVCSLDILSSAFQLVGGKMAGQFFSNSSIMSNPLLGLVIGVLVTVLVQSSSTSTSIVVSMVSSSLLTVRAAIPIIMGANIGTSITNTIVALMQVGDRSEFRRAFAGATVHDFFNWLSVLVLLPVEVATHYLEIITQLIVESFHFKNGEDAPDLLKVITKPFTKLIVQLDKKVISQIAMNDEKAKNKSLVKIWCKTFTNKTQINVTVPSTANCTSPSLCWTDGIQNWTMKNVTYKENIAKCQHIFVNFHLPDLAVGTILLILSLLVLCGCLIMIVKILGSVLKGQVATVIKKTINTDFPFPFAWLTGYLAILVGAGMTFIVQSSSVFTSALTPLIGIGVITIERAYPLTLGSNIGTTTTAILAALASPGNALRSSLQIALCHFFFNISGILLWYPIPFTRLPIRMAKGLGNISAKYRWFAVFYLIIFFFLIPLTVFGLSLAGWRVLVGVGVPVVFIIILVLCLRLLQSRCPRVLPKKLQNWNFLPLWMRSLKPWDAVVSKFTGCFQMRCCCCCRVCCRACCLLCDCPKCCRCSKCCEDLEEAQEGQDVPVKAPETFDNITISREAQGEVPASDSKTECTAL", "assay": "flow cytometry, IGROV-1 cells (endogenous NaPi2b); apparent Kd", "description": "Briefly, cells were seeded at 50,000 cells/well in conical-bottom 96-well plates and treated with test antibody for 24 hours at 4° C. to prevent internalization. […] Following incubation and washing, fluorescence was detected by flow cytometry on a BD LSRFortessa™ Cell Analyzer (BD Biosciences, Franklin Lake, NJ) with 1,000 minimum events collected per well."}, "[5]": {"biological_target": "T3, human sodium-dependent phosphate …", "assay": "flow cytometry, HEK293-6e cells transfected with human NaPi2b", "description": "as §1"}, "[6]": {"biological_target": "T3, human sodium-dependent phosphate …", "assay": "flow cytometry, HEK293-6e cells transfected with human NaPi2b; apparent Kd", "description": "as §1"}, "[7]": {"biological_target": "T4, KLH (Sigma-Aldrich, H8283)", "T4 construct": "Coating of the non-specific ELISA", "assay": "non-specific ELISA, KLH coated, antibody 100 nM", "description": "NS-ELISA was used to measure the propensity of the antibodies to bind to a range of biomolecules to emulate the undesirable non-specific interactions to biological matrices in vivo as described below.\nNS-ELISA was carried out in Corning® 96-well EIA/RIA Easy Wash™ Clear Flat Bottom Polystyrene High Bind Microplate coated overnight at 4° C. with 50 μL of Heparin (Sigma, H3149) diluted with 50 mM sodium carbonate pH 9.6 to a final concentration of 250 μg/mL. The plate was incubated for 2 days at room temperature, wells that were coated with heparin were not covered to allow air dry. […] 50 μL each of insulin, KLH, dsDNA and ssDNA were added to a 96 well plate, followed by the incubation at 37° C. for 2 h. The coating materials were removed, and the plate was blocked with 200 μL of Gibco™ PBS pH7.4, 0.1% Tween®20, and incubated for 1 h at room temperature with shaking at 200 rpm. The plate was washed 3 times with Gibco™ PBS pH7.4, 0.1% Tween 20. 50 μL of each mAb at 100 nM (15 mg/mL) in Gibco™ PBS pH 7.4, 0.1% Tween®20 was added in duplicate to the wells and incubated for 1 h at room temperature with shaking at 200 rpm. […] Plates were incubated for 1 h at room temperature, with shaking at 200 rpm. The plate was washed three times with Gibco™ PBS pH7.4, 0.1% Tween 20, and 100 μL of TMB substrate (Cell Signaling Technology©, 7004P6) added to each well. […] Binding scores were calculated as the ratio of the ELISA signal of the antibody to the signal of a well containing buffer instead of the primary antibody."}, "[8]": {"biological_target": "T3, human sodium-dependent phosphate …", "assay": "flow cytometry, IGROV-1 cells (endogenous NaPi2b)", "set-up": "unit not given here"}, "[9]": {"biological_target": "T5, Construct 6 (NaPi2b del 317-333) (human, UniProt O95436 1-690)", "T5 construct": "Deletion construct on HEK293-6e cells; also called CL_#29919", "T5 sequence": "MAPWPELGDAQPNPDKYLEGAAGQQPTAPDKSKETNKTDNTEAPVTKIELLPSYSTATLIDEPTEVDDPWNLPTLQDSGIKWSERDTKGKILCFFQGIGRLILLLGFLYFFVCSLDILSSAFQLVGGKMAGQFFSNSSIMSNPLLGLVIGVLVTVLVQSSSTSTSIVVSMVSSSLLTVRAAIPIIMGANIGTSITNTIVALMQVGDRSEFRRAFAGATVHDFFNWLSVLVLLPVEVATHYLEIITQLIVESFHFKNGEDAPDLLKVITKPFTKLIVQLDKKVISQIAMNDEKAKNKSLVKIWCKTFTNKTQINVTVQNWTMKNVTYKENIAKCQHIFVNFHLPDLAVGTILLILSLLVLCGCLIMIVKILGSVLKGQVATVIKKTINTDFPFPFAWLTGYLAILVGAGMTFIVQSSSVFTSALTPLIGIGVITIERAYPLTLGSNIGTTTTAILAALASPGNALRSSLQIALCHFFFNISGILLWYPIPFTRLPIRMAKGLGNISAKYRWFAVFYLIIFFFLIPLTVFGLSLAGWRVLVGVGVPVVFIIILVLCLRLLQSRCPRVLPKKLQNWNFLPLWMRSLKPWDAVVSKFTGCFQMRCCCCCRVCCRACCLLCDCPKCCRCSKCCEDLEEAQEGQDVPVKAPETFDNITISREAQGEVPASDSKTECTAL", "assay": "flow cytometry, HEK293-6e cells transfected with Construct 6", "description": "(§2) Following transfection, cells were seeded at 50,000 cells/well in conical-bottom 96-well plates and treated with a serial dilution of test antibody for 24 hours at 4° C. to prevent internalization. Cells were treated with final concentrations of all humanized antibodies of 200, 20, or 2 nM. Cells were treated with final concentrations of the reference anti-NaPi2a rabbit antibody of 50, 5, or 0.5 nM. […] Following incubation and washing, fluorescence was detected by flow cytometry on a BD LSRFortessa™ Cell Analyzer (BD Biosciences, Franklin Lake, NJ) with 1,000 minimum events collected per well. […] Background-subtracted AF647 Mean Fluorescence Intensity (MFI) values were calculated by subtracting the average MFI of three technical replicates of unstained (no primary antibody) cells."}, "[10]": {"biological_target": "T6, Construct 7 (NaPi2b del 317-326) (human, UniProt O95436 1-690)", "T6 construct": "Deletion construct on HEK293-6e cells; also called CL_#29921", "T6 sequence": "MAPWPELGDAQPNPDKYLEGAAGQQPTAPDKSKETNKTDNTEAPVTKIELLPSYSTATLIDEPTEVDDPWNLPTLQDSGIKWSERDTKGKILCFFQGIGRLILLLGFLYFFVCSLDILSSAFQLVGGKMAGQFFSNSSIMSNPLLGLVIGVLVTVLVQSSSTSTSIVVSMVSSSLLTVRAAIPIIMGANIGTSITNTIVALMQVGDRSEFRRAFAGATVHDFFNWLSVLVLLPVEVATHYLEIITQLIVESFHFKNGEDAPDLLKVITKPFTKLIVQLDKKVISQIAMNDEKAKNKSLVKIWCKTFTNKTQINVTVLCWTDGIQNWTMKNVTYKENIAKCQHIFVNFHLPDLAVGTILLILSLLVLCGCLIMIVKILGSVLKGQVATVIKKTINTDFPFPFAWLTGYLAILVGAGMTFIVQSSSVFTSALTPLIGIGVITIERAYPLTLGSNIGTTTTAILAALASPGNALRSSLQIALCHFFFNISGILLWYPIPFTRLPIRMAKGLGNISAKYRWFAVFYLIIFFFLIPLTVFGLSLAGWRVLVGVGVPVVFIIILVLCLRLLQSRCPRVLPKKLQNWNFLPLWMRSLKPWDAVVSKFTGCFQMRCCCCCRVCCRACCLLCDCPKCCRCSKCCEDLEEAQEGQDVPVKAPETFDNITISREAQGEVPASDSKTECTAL", "assay": "flow cytometry, HEK293-6e cells transfected with Construct 7", "description": "as §2"}, "[11]": {"biological_target": "T3, human sodium-dependent phosphate …", "assay": "flow cytometry on IGROV-1 cells (endogenous NaPi2b), 24 h at 4 C, anti-human IgG Fc AF647, APC-A GeoMean", "description": "Cells were maintained under standard culture conditions (37° C./5% CO₂) until assay set-up. […] Cells were removed from culture vessels using Cell Dissociation Buffer (Invitrogen, Waltham, MA), seeded at 50,000 cells/well in conical-bottom 96-well plates, and treated with test antibody or antibody-drug conjugate for 24 hours at 4° C. to prevent internalization. […] Following incubation and washing, fluorescence was detected by flow cytometry on a BD LSRFortessa™ Cell Analyzer (BD Biosciences, Franklin Lake, NJ) with 1,000 minimum events collected per well."}}, "data": [{"binder": "B1", "values": [{"measurement": "Kd", "setting": "[1]", "result": 10.6, "unit": "nM"}, {"measurement": "Bmax", "setting": "[2]", "result": 2010}, {"measurement": "Kd", "setting": "[3]", "result": 3.2, "unit": "nM"}, {"measurement": "Kd", "setting": "[4]", "result": 1.1, "unit": "nM"}, {"measurement": "Bmax", "setting": "[5]", "result": 2540}, {"measurement": "Kd", "setting": "[6]", "result": 5.2, "unit": "nM"}, {"measurement": "NS-ELISA binding score (signal over buffer well)", "setting": "[7]", "result": 1.37}, {"measurement": "Bmax", "setting": "[8]", "result": 40900}]}, {"binder": "B2", "values": [{"measurement": "binding result", "setting": "[9]", "result": "no binding (tested: 200 nM)"}, {"measurement": "binding result", "setting": "[10]", "result": "no binding (tested: 200 nM)"}, {"measurement": "binding result", "setting": "[11]", "result": "no binding (tested: 200 nM)"}]}]}
